The chains are these.
B1: Endoribonuclease ZC3H12A (Mus musculus), Q5D1E7 (parent)
chain: MSDPCGTKPVQESNPTMSLWSLEDRHSSQGRPQPDQDPVAKEAPTSELQMKVDFFRKLGYSSSEIHSVLQKLGVQADTNTVLGELVKHGSATERECQALTAPSPQPPLVPRGGSTPKPSTLEPSLPEEDREGSDLRPVVIDGSNVAMSHGNKEVFSCRGILLAVNWFLERGHTDITVFVPSWRKEQPRPDVPITDQHILRELEKKKILVFTPSRRVGGKRVVCYDDRFIVKLAFESDGVVVSNDTYRDLQGERQEWKRFIEERLLMYSFVNDKFMPPDDPLGRHGPSLDNFLRKKPLPSEHRKQPCPYGKKCTYGIKCRFFHPERPSRPQRSVADELRANALLSPPRTPVKDKSSQRPSPASQSSSVSLEAEPGSLDGKKLGARSSPGPHREGSPQTCAPAGRSLPVSGGSFGPTEWLAHTQDSLPYTSQECLDSGIGSLESQMSELWGVRGGSPGESGPTRGPYAGYHSYGSKVPAAPSFSPFRPAMGAGHFSVPTDYVPPPPTYPSREYWSEPYPLPPPTPVLQEPQRPSPGAGGGPWGRVGDLAKERAGVYTKLCGVFPPHLVEAVMRRFPQLLDPQQLAAEILSYKSQHLSE
partner: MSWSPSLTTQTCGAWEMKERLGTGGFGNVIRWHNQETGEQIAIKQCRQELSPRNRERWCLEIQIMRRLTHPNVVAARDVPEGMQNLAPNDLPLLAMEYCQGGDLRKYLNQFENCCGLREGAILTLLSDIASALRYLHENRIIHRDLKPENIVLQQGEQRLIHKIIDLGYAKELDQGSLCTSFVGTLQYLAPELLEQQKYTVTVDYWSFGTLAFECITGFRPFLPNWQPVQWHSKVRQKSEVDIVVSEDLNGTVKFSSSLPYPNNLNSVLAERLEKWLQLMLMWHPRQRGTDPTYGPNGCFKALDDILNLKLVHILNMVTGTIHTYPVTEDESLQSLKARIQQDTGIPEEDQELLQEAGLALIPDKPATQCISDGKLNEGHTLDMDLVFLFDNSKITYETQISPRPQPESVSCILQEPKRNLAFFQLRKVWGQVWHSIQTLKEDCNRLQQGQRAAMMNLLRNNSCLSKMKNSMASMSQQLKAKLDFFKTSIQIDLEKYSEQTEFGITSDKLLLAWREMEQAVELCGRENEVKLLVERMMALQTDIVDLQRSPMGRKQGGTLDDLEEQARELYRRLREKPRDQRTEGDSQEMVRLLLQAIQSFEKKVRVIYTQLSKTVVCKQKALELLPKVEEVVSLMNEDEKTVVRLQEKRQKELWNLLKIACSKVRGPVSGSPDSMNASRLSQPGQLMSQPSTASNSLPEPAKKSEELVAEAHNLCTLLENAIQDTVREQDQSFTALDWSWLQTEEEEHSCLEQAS

In this assay the parent is B1. The following applies: with ikkb_human IKBKB.
On to S435A, for which the “effect of a mutation on the interaction” value is “decreasing interaction”.
Consider S435A;S439A, for which the “effect of a mutation on the interaction” value is recorded as “decreasing interaction”.
With S439A, the “effect of a mutation on the interaction” value is on record as “decreasing interaction”.

The values above are taken from IntAct's records for PubMed 22037600.
